# According to the nanobody polyreactivity screen of Harvey et al. (2022):
# Test: yeast display, Sf9 membrane polyspecificity reagent, FACS + sequencing; frameworks hold sequencing errors
# Procedure, shortened: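 Synthetic nanobody libraries on Saccharomyces cerevisiae BJ5465 were galactose-induced for 36–48 hours, stained 1 hour at 4 °C with 10% biotinylated, detergent-solubilized Sf9 membrane reagent and enriched on streptavidin microbeads. FACS then separated cells into low and high (top ~1%) gates by anti-HA (expression) and streptavidin (reagent binding) fluorescence. Genes were colony-PCR amplified, MiSeq 2 × 250 sequenced and CDR-length filtered. A clone's polyreactivity label is that of its gate of origin.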
row,Sequence,polyreactivity (PSR sort gate)
1,QVQLVESGGGLVQAGGSLRLSCAASGITSVVYAMGWYRQAPGKERELVAAISSAGSTYYADSVKGRFTISRDNAKNTVYLQMNSLKPEDTAVYYCAAAGYPQTYLYYYWGQGTQVTVSS,low polyreactivity
2,QVQIVESGGGLVQAGGSLRISCAASGRIFRTYAMGWYRQAPGKERELVAAISSRGGSTSYADSVKGRFTISRDNEKNTVYLQLNSLKPEDTAVYYCARVGRNPVKYDYWGQGTQVTVSS,high polyreactivity
3,QVQLVESGGGLVQAGGSLRLSCAASGITFLAYAMGWYRQAPGKERELVAGISKSGGNTYYADSVKGRFTISRDNAKNTVYLQMNSLKPEDTAVYYCAARYRLTYFDANYRYGYWGQGTQVTVSS,high polyreactivity
4,QVQLVESGGGLVQAGGSLRLSCAASGRIFGVYAMGWYRQAAWKERELVAAITRGASTYYADSVKGRFTISRDNAKNTVYLQMNSLKPEDPAVYYCAVSQYRGIYRKYDYWGQGTQVTVSS,high polyreactivity
5,QVQLVESGGGLVQAGGSLRLSCAASGFIFSQYAMGWYRQAPGKERELVAAISYSGGSTYYADSVKGRFTISRDNAKNTVYLQMNSLKPEDTAVYYCAVSGRSYYRSDYWGQGTQVTVSS,high polyreactivity
6,QVQLVESGGGLVQAGGSLRLSCAASGFIFRYNTMGWYRQPPGKERELVAAISVSGARTYYADSVKGRFTLSRDNAKNTVYLQMNSLKPEDTAVYYCNRRYPLYSRYNNDYWGQGTQVTVSS,high polyreactivity
7,QVQLVESGGGLVQAGGSLRLSCAASGRIFGSYTMGWYRQAPGKERELVAGISRRGGSTYYADSVKGRFTISRDNAKNTVYLQMNSLKPEDTAVYYCAAEVYYFYFYIMDYWGQGTQVTVSS,high polyreactivity
8,QVQLVESGGGLVQAGGSLRLSCAASGSTFYDYAMGWYRQAPGKERELVAGIRNGGSTNYADSVKGRFTISRDNAKNTVYLQMNSLIPEDTAVYYCAAPRWDGFYSYYRVVWGIFDYWGQGTQVTVSS,low polyreactivity
9,QVQLVESGGGLVQAGGSLRLSCAASGFIFSRYTMGWYRQAPGKERELVAAISKRGGSTYYADSVKGRFTISRDNAKNTVYLQMNSLKPEDTAVYYCAADRLPSGSLVEYWGQGTQVTVSS,high polyreactivity
10,QVQLVESGGGLVQAGGSLRLSCAASGSTLGFNAMGWYRQAPGKEREFVAGISASGSSTYYADSVKGRFTISRDNAKNTVYLQMNSLKPEDTAVYYCAARASGGPYWSRGKYWGQGTQVTVSS,high polyreactivity
11,QVQLVESGGGLVQAGGSLRLSCAASGRIFANYAMGWYRQAPGKERELVAAISRSGGSTSYADSVKGRFTISRDNAKNTVYLQMNSLKPEDTAVYYCAATRSRYQPVKYGYWGQGTQVTVSS,high polyreactivity
12,QVQLVESGGGLVQAGGSLRLSCAASGGIFEAYVMGWYRQAPGKERELVAAISFRGGSTYYADSVQGRFTISRVNAKNSVYLQMNSLKPEDTAVYYCAADYRHQGYDYWGQGTQVTVSS,low polyreactivity
13,QVQLVESGGGLVQAGGSLRLSCAASGSTFKRNAMGWYRQAPGKERELVAAITSGGSTYYADSVKGRFTISRDNAKNTVYLQMNSLKPEDTAVYYCNKVRGAFYSHLFDYWGQGTQVTVSS,high polyreactivity
14,QFQLVESGGGLVQAGGSLRLSCAASGRTLYGYAMGWYRQAPGKERELVAVISGRGGSTYYADSVKGRFTISRDNAKNTVYLQMNSLKPEDTAAYFCAAVVHQGLSVRYGYWGQGTQVTVSS,high polyreactivity
15,QVQLVESGGGIVQAGGSLRLSCAASGRTFAGNAMGWYRQAPGKERELVAAISQGGGSTYYADSVKGRFTISRDNAKNTVYLQMNSLKPEDTAVYYCAAEIPRRWASFATLWYDYWGQGTQVTVSS,low polyreactivity
16,QVQLVESGGGLVQAGGSLRLSCAASGFTFGLYAMGWYRQAPGKERELVAVISSSGGSTYYADSVKGRFTISRDNAKNTVYLQMNSLTPEDTAVYYCAKDFEAGDDYFAYDYWGQGTQVTVSS,low polyreactivity

row,Sequence,polyreactivity (PSR sort gate)
1,QVQLVESGGGLVQAGGSLRLSCAASGSSFGWYGMGWYRQAPGKERELVASINWRGSSTYYADSVKGRFTISRDNSKNTVYLQMNSLKPEDTAVYYCATTRDWAYNYWGQGTQVTVSS,low polyreactivity
2,QVQLVESGGGLVQAGGSLRLSCAASGSIFKYYAMGWYRQAPGKERELVAAINSGGDTYYADSVKGRFTISRDNAKNTVYLQMNSLKPEDTAVYYCAAYGYAGYAHRDMDYWGQGSQVTVSS,low polyreactivity
3,QVQLVESGGGLVQAGGSLRLSCAASGIIFPRYAMGWYRQAPGKERELVAAITRRGGRTYYADSVKGRFTISRDNAKNTVYLQMNSLKPEDTAVYYCNADFISPRPPKATDEDYWGQGTQVTVSS,high polyreactivity
4,QVQLVESGGGLVHAGGSLRLSCAASGSTLKYYAMGWYRQAPGKERELVAAITSGSSTYYADSVKGRFTISRDNAKNTVYLQMNSLKPEDTAVYYCAADYYTGYGRYYSTRFYYWGQGTQVTVSS,high polyreactivity
5,QVQLVESGGGLVQAGGSLRLSCAASGSIFRSYAMGWYRQAPGKERELVARITYRGGGTYYADSVKGRVTISRDNAKNTVYLQMKSLKPEVTAVYYCAASGAFVRTRVTTADYDYWGQGTQVTVSS,high polyreactivity
6,QVQLVESGGGLVQAGGSLRLSCAASGRIFSRYVMGWYRQAPGKERELVAAISGRATSTYYADSVKGRFTISRDNAKNTVYLQMNSLKPEDTAVYYCATGYKTYAVTLYDYWGQGTQVTVSS,high polyreactivity
7,QVQLVESGGGLVQAGGSLRLSCAASGRTFIHYAMVWYRQAPGKERELVAAISRRGGSTYYADSVKGRFTISRDNAKNTVYLQMNSLKPEDTAVYYCAKATTTREPKYGYWGQGTQVTVSS,high polyreactivity
8,QVQLVDSGGGLVQAGGILRLSCAASGRTFTYYTMGWYRQAPGKESEMVAAITWSGGRTYYADSVKGRFTISRDNAKNTVYLQMNILKPEDTAVYYCAAYEIYYEFDSWGQGTQVTVSS,low polyreactivity
9,QVQLVESWGGLVQAGGSLRLSCAASGYISNAMGWYRQAPGKERELVAVITRGGSTNYADSVKGRFTISRDNAKNTVYLQMNSLKPEDTAVYYCAKDVPYRRVRSEYWGQGTQVTVSS,low polyreactivity
10,QVQLQESGGGLVQAGGSLRLSCAASGSIFHLHIMCWYRQAPGKERESVAAISYGTSTYYADSVKGRFTICRDNAKNTLYLQMNSPKPDDTAVYYCAALFLVSKHHHYWGEGTQVTVSS,low polyreactivity
11,QVQLVESGGGLLQAGGSLRLSCAASGSIFPDYAKGSYRQAPGKERELVAAITGIDGSTYADSVKGRFTISRVHAKNSVYLQINRLKPEDTAVYYCNTESIRYVPWFRFDYWGQGTQVTVSS,low polyreactivity
12,QLQLQESGSGLEQAGGSLRLSCASSGYISLGDNMGWYRQAPGKEREFVATISVGGITYYVDSVKGRFTISRDIAKNTVYLQRNSLNPEDTAVYYCADLDIYYFRYYYWGQGTQVTVSS,low polyreactivity
13,QVQLVESGGGLVQAGGGLRLSCAASGSILPEYAMGWYRQAPGKERELVAAITTSGGSTYYADSVKGRFTISRDNAKNTVYLQMNSLKPEDTAVYYCAVEYLVYLDYTYDYWGQGTQVTVSS,low polyreactivity
14,QVQLVESGGGLVQAGASLRLSCAASGSIFYYDMGWDRQAPGKERELVAAITWSGGSTYYADSVKGRFTISRDNAKNTVYLQMNSLKPEDTAVYYCAAIFGYGSTWWRWGKDDYWGQGTQVTVSS,high polyreactivity
15,QVQLVESGGGLVQEGGTLRLSCAASGSISIRNAMGWYRQAPGKERELVAAITYSGGSTYYADSVKGRFTISRDTAKNTVYLQMNSLKPEDTAVYYCAKDHYRFRYDYWGQGTQVTVSS,low polyreactivity
16,QVQLVESGGGLVQAGGSLRLSCAASGIIFGSNAMGWYRQSPGKERELVAAISRNGGRTYYADSVKGRFTISRDNAKNTVYLQMNSLKPEDTAVYYCATRWPHYGGYYYWGQGTQVTVSS,high polyreactivity
